Biological target: gelatin substrate

B1: Dif153 (CD2830, hypothetical protein, zinc metallopeptidase), recombinant (protein)
chain: DSTTIQQNKDTLSQIVVFPTGNYDKNEANAMVNRLANIDGKYLNALKQNNLKIKLLSGKLTDEKEYAYLKGVVPKGWEGTGKTWDDVPGLGGSTVALRIGFSNKGKGHDAINLELHETAHAIDHIVLNDISKSAQFKQIFAKEGRSLGNVNYLGVYPEEFFAESFAYYYLNQDTNSKLKSACPQTYSFLQNLAK
- fluorimetric analysis of gelatin cleavage: the recombinant protein has a weak gelatinase/collagenase activity in the presence of zinc, but not in the presence of nickel and copper or in the apo form

Source: patent US20150315248
